Here are results for one molecule from PMC6712033, “Proteasome subunit α1 overexpression preferentially drives canonical proteasome biogenesis and enhances stress tolerance in yeast” (Scientific Reports, 2019).

The target of this test is T1, proteasome subunit α2-K160C (S. cerevisiae, UniProt P23639 1-250, K160C).
T1 construct: 20S proteasome core particle subunit α2, S. cerevisiae, with an engineered cysteine at the α2-α3 interface; Detected with an anti-His antibody (TetraHis); also called His (α2); source: S. cerevisiae (WT or pba3Δ), in cell extract
T1 sequence (looked up): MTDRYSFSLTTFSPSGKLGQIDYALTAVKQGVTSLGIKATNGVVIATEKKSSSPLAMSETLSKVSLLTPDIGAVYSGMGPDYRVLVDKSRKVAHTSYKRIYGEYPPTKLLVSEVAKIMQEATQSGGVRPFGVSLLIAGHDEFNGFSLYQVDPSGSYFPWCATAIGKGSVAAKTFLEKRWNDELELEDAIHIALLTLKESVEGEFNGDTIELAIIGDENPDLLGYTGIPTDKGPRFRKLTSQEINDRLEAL
Briefly: cross-linking; engineered disulfide crosslinking in yeast extracts (WT or pba3Δ, empty vector or α1 overexpressed); 250 µM CuCl2, 25 °C, 10 minutes; 50 mM HEPES pH 7.5, 150 mM NaCl, 5 mM MgCl2, 2 mM ATP; non-reducing SDS-PAGE, anti-His immunoblot; reversed by DTT. Conditions: partners not purified. In general terms: In western blotting, separated proteins are transferred to a membrane and probed.

B1: proteasome subunit α3-L56C (natural protein, S. cerevisiae, UniProt P23638 1-258, looked up)
chain: MGSRRYDSRTTIFSPEGRLYQVEYALESISHAGTAIGIMASDGIVLAAERKVTSTCLEQDTSTEKLYKLNDKIAVAVAGLTADAEILINTARIHAQNYLKTYNEDIPVEILVRRLSDIKQGYTQHGGLRPFGVSFIYAGYDDRYGYQLYTSNPSGNYTGWKAISVGANTSAAQTLLQMDYKDDMKVDDAIELALKTLSKTTDSSALTYDRLEFATIRKGANDGEVYQKIFKPQEIKDILVKTGITKKDEDEEADEDMK
notes: 20S proteasome core particle subunit α3, S. cerevisiae, with an engineered cysteine at the α2-α3 interface; source: S. cerevisiae (WT or pba3Δ), in cell extract
On to B1, for which the “fold increase in crosslinking (α1 overexpressed against empty vector, pba3Δ cells)” value was 1.76 fold.
